No end group written: not given here.
Key:
Assay in all cases: virion-oscillator (plasmonic imaging, SPR read-out); VirD-GPCR virions tethered to a gold chip by a PEG linker and driven by a sinusoidal potential (5 Hz); label-free SRIF-14 perfused at several doses; first-order kinetics model
Details in all cases: one partner purified
VirD-KISS1R = biological target: T1, VirD-KISS1R (human, UniProt Q969F8 1-398)
T1 construct: source: recombinant HSV-1 (UL27 locus); virions from infected cells (in most cases Vero), purified by sucrose cushion; also on infected Vero cells; not shown: V5, C-terminal, kept

VirD-GABBR2 = biological target: T2, VirD-GABBR2 (human, UniProt O75899 42-941)
T2 construct: source: recombinant HSV-1 (UL27 locus); virions from infected cells (in most cases Vero), purified by sucrose cushion; also on infected Vero cells; not shown: V5, C-terminal, kept
T2 sequence: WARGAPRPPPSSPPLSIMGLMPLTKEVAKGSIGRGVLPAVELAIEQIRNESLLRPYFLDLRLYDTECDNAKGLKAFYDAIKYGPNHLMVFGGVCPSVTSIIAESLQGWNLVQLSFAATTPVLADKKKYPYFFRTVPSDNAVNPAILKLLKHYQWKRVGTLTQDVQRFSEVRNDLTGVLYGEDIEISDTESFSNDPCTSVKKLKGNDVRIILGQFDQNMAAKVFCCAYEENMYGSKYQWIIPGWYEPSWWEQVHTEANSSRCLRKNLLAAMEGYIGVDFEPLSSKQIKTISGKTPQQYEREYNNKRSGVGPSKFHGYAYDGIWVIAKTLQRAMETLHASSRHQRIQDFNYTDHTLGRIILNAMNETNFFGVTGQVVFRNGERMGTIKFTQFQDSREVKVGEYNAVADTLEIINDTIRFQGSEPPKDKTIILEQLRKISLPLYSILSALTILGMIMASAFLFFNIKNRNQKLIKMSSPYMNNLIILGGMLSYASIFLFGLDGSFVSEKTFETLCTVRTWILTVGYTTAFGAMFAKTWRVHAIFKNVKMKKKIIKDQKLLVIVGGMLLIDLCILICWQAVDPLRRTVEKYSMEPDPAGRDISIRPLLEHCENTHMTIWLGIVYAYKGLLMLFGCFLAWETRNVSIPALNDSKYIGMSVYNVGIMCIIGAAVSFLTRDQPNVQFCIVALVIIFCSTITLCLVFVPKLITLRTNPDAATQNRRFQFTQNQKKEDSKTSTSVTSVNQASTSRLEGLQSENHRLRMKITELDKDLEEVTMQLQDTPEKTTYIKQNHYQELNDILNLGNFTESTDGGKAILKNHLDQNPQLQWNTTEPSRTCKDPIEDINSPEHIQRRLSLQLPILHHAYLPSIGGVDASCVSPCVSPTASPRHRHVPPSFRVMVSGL

VirD-NTSR1 = biological target: T3, VirD-NTSR1 (human, UniProt P30989 1-418)
T3 construct: source: recombinant HSV-1 (UL27 locus); virions from infected cells (in most cases Vero), purified by sucrose cushion; also on infected Vero cells; not shown: V5, C-terminal, kept
T3 sequence (P30989 whole entry): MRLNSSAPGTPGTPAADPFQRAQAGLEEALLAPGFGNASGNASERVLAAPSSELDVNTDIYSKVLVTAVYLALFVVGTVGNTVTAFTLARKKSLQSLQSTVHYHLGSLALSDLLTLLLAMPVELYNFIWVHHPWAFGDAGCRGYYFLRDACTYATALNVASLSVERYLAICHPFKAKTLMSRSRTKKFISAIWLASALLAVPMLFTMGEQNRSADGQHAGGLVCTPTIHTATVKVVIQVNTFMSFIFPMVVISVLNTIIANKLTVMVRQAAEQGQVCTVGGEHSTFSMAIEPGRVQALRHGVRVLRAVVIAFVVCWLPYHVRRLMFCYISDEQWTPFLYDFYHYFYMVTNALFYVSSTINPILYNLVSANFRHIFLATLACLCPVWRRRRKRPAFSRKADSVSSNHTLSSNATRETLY

T1 sequence (Q969F8 whole entry): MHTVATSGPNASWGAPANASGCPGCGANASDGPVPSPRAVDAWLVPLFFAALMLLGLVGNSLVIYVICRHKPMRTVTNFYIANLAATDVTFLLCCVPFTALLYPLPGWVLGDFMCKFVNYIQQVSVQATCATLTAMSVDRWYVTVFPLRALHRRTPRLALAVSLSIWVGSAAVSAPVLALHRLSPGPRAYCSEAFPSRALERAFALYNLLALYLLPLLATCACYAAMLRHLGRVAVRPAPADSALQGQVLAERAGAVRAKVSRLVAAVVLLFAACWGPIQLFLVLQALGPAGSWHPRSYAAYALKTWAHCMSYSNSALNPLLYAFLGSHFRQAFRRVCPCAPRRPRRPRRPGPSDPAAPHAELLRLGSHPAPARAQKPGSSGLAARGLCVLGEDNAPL

B1: somatostatin-14 (SRIF-14), unlabeled (peptide)
peptide: AGCKNFFWKTFTSC
modifications: not fully specified (bridges); ends and bridges not checked
notes: somatostatin-14 (SRIF-14), cut product of the somatostatin precursor; also called cold SRIF-14; SIRF-14; source: bought: AnaSpec (peptide)
B1 showed a Kd (VirD-KISS1R) of 25000 nM, a Kd (VirD-GABBR2) of 400 nM and a Kd (VirD-NTSR1) of 2600 nM.
